The results in this text go back to patent US20110093964A1 (COMMISSARIAT A L ENERGIE ATOMIQUE, published 2011).

For this assay, the target named is native bovine brain calmodulin (bovine, UniProt P62157 2-149). Briefly: tryptophan fluorescence of 5 uM MLCKp (excitation 280 nm) in 10 mM MES pH 6.5, one equivalent of calmodulin, no metals.

B1: MLCKp peptide, 17 residues, derived from the calmodulin-binding domain of a rabbit muscle myosin light chain kinase (CALBIOCHEM) (peptide)
peptide: Ac-RRKWQKTGHAVRAIGRL-NH2
notes: Its tryptophan is the fluorescent probe of the assay; also called calmodulin ligand peptide; the ligand
B1: the binding result is given as “binds”.
